In assay [1] the target is T1, PTPRD R232C R233C variant extracellular domain (human, UniProt P23468 21-1265).
T1 construct: extracellular domain; also called R232C/R233C double mutant; IG2 mutant
T1 sequence (looked up): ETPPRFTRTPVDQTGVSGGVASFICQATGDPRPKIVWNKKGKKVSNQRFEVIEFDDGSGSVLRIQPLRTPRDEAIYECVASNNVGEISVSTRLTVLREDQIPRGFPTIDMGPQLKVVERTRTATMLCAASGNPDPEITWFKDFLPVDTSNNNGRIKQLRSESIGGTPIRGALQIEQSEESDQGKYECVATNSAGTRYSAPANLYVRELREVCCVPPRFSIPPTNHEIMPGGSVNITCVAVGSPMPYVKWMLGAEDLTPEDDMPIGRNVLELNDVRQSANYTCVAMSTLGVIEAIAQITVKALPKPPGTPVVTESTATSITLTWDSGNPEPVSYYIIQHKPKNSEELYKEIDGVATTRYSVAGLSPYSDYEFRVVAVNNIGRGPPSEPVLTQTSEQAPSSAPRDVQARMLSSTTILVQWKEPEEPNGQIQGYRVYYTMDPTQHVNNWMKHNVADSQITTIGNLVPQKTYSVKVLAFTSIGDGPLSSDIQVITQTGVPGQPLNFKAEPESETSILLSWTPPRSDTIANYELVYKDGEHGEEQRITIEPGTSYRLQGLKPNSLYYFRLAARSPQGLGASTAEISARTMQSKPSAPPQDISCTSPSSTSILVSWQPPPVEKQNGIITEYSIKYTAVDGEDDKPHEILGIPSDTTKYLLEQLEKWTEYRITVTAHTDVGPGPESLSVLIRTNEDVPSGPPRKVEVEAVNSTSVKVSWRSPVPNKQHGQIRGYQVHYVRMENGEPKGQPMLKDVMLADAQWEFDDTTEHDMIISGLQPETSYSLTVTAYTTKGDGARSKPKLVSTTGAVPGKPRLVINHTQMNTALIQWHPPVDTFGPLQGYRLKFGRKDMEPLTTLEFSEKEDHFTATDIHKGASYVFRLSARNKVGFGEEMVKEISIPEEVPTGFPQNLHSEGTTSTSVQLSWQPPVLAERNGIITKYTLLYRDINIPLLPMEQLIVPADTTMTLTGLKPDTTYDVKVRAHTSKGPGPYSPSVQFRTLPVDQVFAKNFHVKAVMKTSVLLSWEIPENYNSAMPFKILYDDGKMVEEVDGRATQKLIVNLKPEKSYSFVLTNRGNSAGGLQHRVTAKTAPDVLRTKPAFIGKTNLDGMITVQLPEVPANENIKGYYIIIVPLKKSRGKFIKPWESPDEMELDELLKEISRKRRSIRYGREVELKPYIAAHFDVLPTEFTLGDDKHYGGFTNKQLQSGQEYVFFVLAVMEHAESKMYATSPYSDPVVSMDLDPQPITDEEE
Nature of the assay: extracellular interaction screen: pentameric PTPRD variant ECD on ECD-Fc prey (FIG. 5L).

Assay [2] addresses T2, PTPRD G285E variant extracellular domain (human, UniProt P23468 21-1265).
T2 construct: extracellular domain; also called IG3 mutant
T2 sequence (looked up): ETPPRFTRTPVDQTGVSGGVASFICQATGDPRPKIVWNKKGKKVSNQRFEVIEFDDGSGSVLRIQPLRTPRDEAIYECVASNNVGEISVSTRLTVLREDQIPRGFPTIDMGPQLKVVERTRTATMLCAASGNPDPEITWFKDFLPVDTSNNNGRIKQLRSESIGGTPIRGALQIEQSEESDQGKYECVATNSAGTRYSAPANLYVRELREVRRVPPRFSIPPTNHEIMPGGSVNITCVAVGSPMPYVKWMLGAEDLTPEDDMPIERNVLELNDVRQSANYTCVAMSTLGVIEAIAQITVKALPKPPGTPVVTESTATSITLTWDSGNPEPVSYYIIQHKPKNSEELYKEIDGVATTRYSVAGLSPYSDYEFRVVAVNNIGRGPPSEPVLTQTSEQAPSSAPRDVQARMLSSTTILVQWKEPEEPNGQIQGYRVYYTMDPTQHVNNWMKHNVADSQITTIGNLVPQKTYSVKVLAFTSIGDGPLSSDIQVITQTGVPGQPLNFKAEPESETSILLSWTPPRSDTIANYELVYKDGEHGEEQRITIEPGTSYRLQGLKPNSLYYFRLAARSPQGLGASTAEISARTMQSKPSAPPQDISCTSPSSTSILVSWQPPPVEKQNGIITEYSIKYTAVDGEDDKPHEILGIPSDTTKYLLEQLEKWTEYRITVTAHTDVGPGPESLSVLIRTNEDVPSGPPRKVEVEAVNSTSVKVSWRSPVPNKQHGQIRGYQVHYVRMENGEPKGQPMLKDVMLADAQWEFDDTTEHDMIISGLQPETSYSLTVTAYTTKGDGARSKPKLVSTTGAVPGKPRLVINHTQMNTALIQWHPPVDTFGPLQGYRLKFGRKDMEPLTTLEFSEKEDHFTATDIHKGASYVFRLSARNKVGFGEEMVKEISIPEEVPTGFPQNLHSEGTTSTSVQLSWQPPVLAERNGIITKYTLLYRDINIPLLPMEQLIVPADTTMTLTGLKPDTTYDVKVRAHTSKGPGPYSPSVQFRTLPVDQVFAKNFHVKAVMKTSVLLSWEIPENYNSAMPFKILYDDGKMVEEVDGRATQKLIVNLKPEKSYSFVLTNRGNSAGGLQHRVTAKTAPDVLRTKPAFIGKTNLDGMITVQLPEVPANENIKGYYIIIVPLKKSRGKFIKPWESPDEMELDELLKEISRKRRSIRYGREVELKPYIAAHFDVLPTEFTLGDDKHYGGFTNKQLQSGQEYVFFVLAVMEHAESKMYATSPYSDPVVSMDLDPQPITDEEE
The assay is described as above.

B1: LRRC4B extracellular domain (receptor, human, UniProt Q9NT99 36-576, looked up)
chain: AGGGGVAVTSAAGGGSPPATSCPVACSCSNQASRVICTRRDLAEVPASIPVNTRYLNLQENGIQVIRTDTFKHLRHLEILQLSKNLVRKIEVGAFNGLPSLNTLELFDNRLTTVPTQAFEYLSKLRELWLRNNPIESIPSYAFNRVPSLRRLDLGELKRLEYISEAAFEGLVNLRYLNLGMCNLKDIPNLTALVRLEELELSGNRLDLIRPGSFQGLTSLRKLWLMHAQVATIERNAFDDLKSLEELNLSHNNLMSLPHDLFTPLHRLERVHLNHNPWHCNCDVLWLSWWLKETVPSNTTCCARCHAPAGLKGRYIGELDQSHFTCYAPVIVEPPTDLNVTEGMAAELKCRTGTSMTSVNWLTPNGTLMTHGSYRVRISVLHDGTLNFTNVTVQDTGQYTCMVTNSAGNTTASATLNVSAVDPVAAGGTGSGGGGPGGSGGVGGGSGGYTYFTTVTVETLETQPGEEALQPRGTEKEPPGPTTDGVWGGGRPGDAAGPASSSTTAPAPRSSRPTEKAFTVPITDVTENALKDLDDVMKTTK
notes: extracellular domain; ECD-Fc prey; also called NGL-3; netrin-G ligand-3
B1: the binding result in assay [1] and in assay [2] was “no binding” throughout.

Values taken from patent US20220119490A1 (Genentech, published 2022).
